Measured values published in the DeepSol protein solubility set.

test: soluble on expression in E. coli; label from the status in PepcDB or PDB records

Sequence	soluble on expression in E. coli
MVAPGSVTSRLGSVFPFLLVLVDLQYEGAECGVNADVEKHLELGKKLLAAGQLADALSQFHAAVDGDPDNYIAYYRRATVFLAMGKSKAALPDLTKVIQLKMDFTAARLQRGHLLLKQGKLDEAEDDFKKVLKSNPSENEEKEAQSQLIKSDEMQRLRSQALNAFGSGDYTAAIAFLDKILEVCVWDAELRELRAECFIKEGEPRKAISDLKAASKLKNDNTEAFYKISTLYYQLGDHELSLSEVRECLKLDQDHKRCFAHYKQVKKLNKLIESAEELIRDGRYTDATSKYESVMKTEPSIAEYTVRSKERICHCFSKDEKPVEAIRVCSEVLQMEPDNVNALKDRAEAYLIEEMYDEAIQDYETAQEHNENDQQIREGLEKAQRLLKQSQKRDYYKILGVKRNAKKQEIIKAYRKLALQWHPDNFQNEEEKKKAEKKFIDIAAAKEVLSDPEMRKKFDDGEDPLDAESQQGGGGNPFHRSWNSWQGFNPFSSGGPFRFKFHFN	soluble
MGSDKIHHHHHHMKTTSVPVAYMPLIDAAPLIVGQEMGFAEAEGISLELIAAPSWSSVRDMLAFGRVDLAHLLSVVPVAMALRLGGVTNPMSAVSVLSVNGNVIGVSRALEARLRAAGYPFDFADAAAAGAALAKVTQGGLTIGVPFPFSMHVELLQVWRSSTPLASVPLDIRTVPPPMMAQALASGEIDAFCVGEPWGSVSVENGAGALLLPGRAIWSFAPEKVLATRADWAETEPHLLGRVMRTVWRAGKWLADPSSRTAAAELLSRPRWLDVPAELVDRALTGELAISPDGEVRDVPGFLEFHHGAANFPWRSQGKWIATQLATRTGMDPSAAARQAADVFRSDLYRAALDGTGADMPGASEKLEGSLIHPTAVASTRGQMILDTDVFFDGRIFDPTT	not soluble
MVSIRRSFEAYVDDMNIITVLIPAEQKEIMTPPFRLETEITDFPLAVREEYSLEAKYKYVCVSDHPVTFGKIHCVRASSGHKTDLQIGAVIRTAAFDDEFYYDGELGAVYTADHTVFKVWAPAATSAAVKLSHPNKSGRTFQMTRLEKGVYAVTVTGDLHGYEYLFCICNNSEWMETVDQYAKAVTVNGEKGVVLRPDQMKWTAPLKPFSHPVDAVIYETHLRDFSIHENSGMINKGKYLALTETDTQTANGSSSGLAYVKELGVTHVELLPVNDFAGVDEEKPLDAYNWGYNPLHFFAPEGSYASNPHDPQTRKTELKQMINTLHQHGLRVILDVVFNHVYKRENSPFEKTVPGYFFRHDECGKPSNGTGVGNDIASERRMARKFIADCVVYWLEEYNVDGFRFDLLGILDIDTVLYMKEKATKAKPGILLFGEGWDLATPLPHEQKAALANAPRMPGIGFFNDMFRDAVKGNTFHLKATGFALGNGESAQAVMHGIAGSSGWKALAPIVPEPSQSINYVESHDNHTFWDKMSFALPQENDSRKRSRQRLAVAIILLAQGVPFIHSGQEFFRTKQGVENSYQSSDSINQLDWDRRETFKEDVHYIRRLISLRKAHPAFRLRSAADIQRHLECLTLKEHLIAYRLYDLDEVDEWKDIIVIHHASPDSVEWRLPNDIPYRLLCDPSGFQEDPTEIKKTVAVNGIGTVILYLASDLKSFA	soluble
SDSPEQESADDALKRIVDGFQHFRREVFPEQQALFKKLANSQRPRAMFITCADSRIVPELITQSSPGDLFVTRNVGNVVPPYGQMNGGVSTAIEYAVLALGVHHIIVCGHSDCGAMRAVLDPQTLERMPTVKAWLRHAEVARTVVADNCDCGASHDTLGVLTEENVVAQLDHLRTHPSVASRLASGQLFIHGWVYDIESAQIRAYDAKQGRFLPLDGEHPVPMATPAPRYLSS	not soluble
MSLHDLLLRNVRPMAGEACDIMIRNGKITGFGKFDAEPGLPVEDGKGAIAVPGLIDAHTHLDKTTWGMPWHVNNRAAILRERIDFERENRVQIGIDPHRQSMRHAIGLAANGGTHIRSHVDIDPTHGLKLVEGIWETREKLDGIIDIEVVAFPQSGVMVMPGTVELLDEALKQGCEVLGGIDPCGIDRDPKGQLDILFQLATKHGVPIDIHLHEAADLGAFTMELIFERIRANGMQGNVAISHAFALGMNDYLRVGRLIDEIARLDVAILTTGAPSASVPSIMRLKEAGVRVGGGCDGIRDTWGPWGQPDMLDRAKIIGMKNGLRSDVELAHVLHVVSRGGADVMGIEDYGMEIGCAADFTLLTGETLAHAVVDITPRPLVVKGGRVTARNGKAIVEAPEGHHHHHH	not soluble
MAHHHHHHMGTLEAQTQGPGSMRLTVVGANGRMGRELITAIQRRKDVELCAVLVRKGSSFVDKDASILIGSDFLGVRITDDPESAFSNTEGILDFSQPQASVLYANYAAQKSLIHIIGTTGFSKTEEAQIADFAKYTTIVKSGNMSLGVNLLANLVKRAAKALDDDFDIEIYEMHHANKVDSPSGTALLLGQAAAEGRNIMLKNVSVNGRSGHTGKREKGTIGFACSRGGTVIGDHSITFAGENERIVLSHIAQERSIFANGALKAALWAKNHENGLYSMLDVLGLNE	soluble
MGSDKIHHHHHHMASESWMKTQAPDPTNLPAEINPEVPSIARVYDYFLGGKDNFPADRAAAAAVEKVFPQGKQLGRESRMLLRRATRELVRAGVRQFLDIGSGLPTAGNVHEIAHEIDPEVRVVYIDNDPVVLAHGRALLADEVTTTVVQADLRHPDGIFDNPEVRALLDFDQPVAVFLASILHHFDDSDDPWALSRKIRDRISSGSYMLITHFYDSGDPVCREVEQALLEGGLGSGWFRTKEQIERFFEGMDVLEPGVVAANEWRPDAETPTDSTTHHLLAGGLARKP	not soluble
MGSDKIHHHHHHMEKTVQLEHMNTRVFVEGAYDTALIPLGSCESHGDHLPFAMDALTAHKLALGVAERMEKVFVLPPTFFGFSQHYWHKPMSISLSQDTNIRVIADILDSLAHWKIRNVLIINGHDGNISAIDVAARAARLRHPDMKIGSLDAWWVTAGNLLPKDTFEVWNGLGHGGEGETSIGLACFPELVDMAHARGMIPEVDENVKELWDFSELTDYGATGAPEKATREKGQAMYDVLVDYLVAYLTKRRDTNWAYNPK	not soluble
MGSDKIHHHHHHMTTILHAMLGKGLGGLEQVFLDYQPILEAWAARRGGRCVGVVRKGGKMAVAQANRTPPLSAMPALTDWDPITVGAARALVKTYRPALIFSHGQRPARVFDKAAPADVVRAVCLHKPSFDVTPGTHYVCVGQHLAALAIERGAPADHVWLVPNAVKPPGVEAQPFAEAGRPIRIVAAGRLHPKKGFDVLIHAVGKLRAWDYEVTCEIAGEGDERGALEGLIRDLDLEASVTLKGWTGDVAGFLATGDLFAFPSHQEGFPLTLLEAMAVGLPVVASEIDGPLEILTDGRDGRLVPDNDPDRLAEALAELISDRETAVRLGAAARQQVLTEYSPQELARRLEAALDGMTSRA	not soluble
MAIISSLANHLLIAMPSLKDPNFERSVVYLCEHNEQGSVGLIINRPLQFPLSIVFEQLQIEPIRVEKNGLPLLFGGPVQPERGFVIHKQMGGWRSSLFLQDEVTVTTSNDIIRAIAYDEGPKDVLITLGYAAWTEQQLEREIMSNTWLVCPYKSEILYEVPFEERWEYAGLTLGIKMNQLSSDAGHALEHHHHHH	not soluble
MSLYSENDISNSIKNGILYLEDPVNHEWYPHYFVLTSSKIYYSEETSSDQGNEDEEEPKEVSSSTELHSNEKWFHGKLGAGRDGRHIAERLLTEYCIETGAPDGSFLVRESETFVGDYTLSFWRNGKVQHCRIHSRQDAGTPKFFLTDNLVFDSLYDLITHYQQVPLRCNEFEMRLSEPVPQTNAHESKEWYHASLTRAQAEHMLMRVPRDGAFLVRKRNEPNSYAISFRAEGKIKHCRVQQEGQTVMLGNSEFDSLVDLISYYEKHPLYRKMKLRYPINEEALEKIGTAEPDYGALYEGRNPGFYVEANPMPTFKCAVKALFDYKAQREDELTFIKSAIIQNVEKQEGGWWRGDYGGKKQLWFPSNYVEEMVNEGHHHHHH	soluble
MGHHHHHHSHMAFMVKSMVGGQLKNLTGSLGGGEDKGDGDKSAAEAQGMSREEYEEYQKQLVEEKMERDAQFTQRKAERATLRSHFRDKYRLPKNETDESQIQLAGGDVELPRELAKMIEEDTEEEEDKASVLGQLASLPGLDLSSLKDKAQTTLGDLKQSAEKCHIM	not soluble
KILAVTACPTGIAHTFMAADALKEKAKELGVEIKVETNGSSGIKHKLTAQEIEDAPAIIVAADKQVEMERFKGKRVLQVPVTAGIRRPQELIEKAMNQDAPIY	soluble
MGHHHHHHSHASELQQHVYDRAHLLSKAEIGKLESLSAKLGAKRDTDFIIITTKSTNGEDIADYTGDFYDRYGKGSTAILTIDMTNREVFIAGFKKAEQYLDNSRLNSIRNTISSDLSNENYFEAFETYIQLSYKDMGIKPGVNPDNI	not soluble
